One substance from PMC4268493 can be followed below.

The target of the experiment is TNF-FLAG (UniProt P01375). In words: SPR.
Sequence of UniProt P01375 (P01375 whole entry): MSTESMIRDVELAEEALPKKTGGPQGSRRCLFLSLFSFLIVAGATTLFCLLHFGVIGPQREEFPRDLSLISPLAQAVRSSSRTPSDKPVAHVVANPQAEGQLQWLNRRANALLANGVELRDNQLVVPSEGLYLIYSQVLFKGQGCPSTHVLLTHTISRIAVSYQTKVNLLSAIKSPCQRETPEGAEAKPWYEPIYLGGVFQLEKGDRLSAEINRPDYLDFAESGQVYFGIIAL

As a reminder, the Kd is the constant that tells how readily two partners part at equilibrium. For “Δ6-TNFR1-Fc fusion protein (from UniProt P19438-4 30-183)”, the dissociation constant Kd came out at 15.6 nM.
